Experiments:
human VEGFA-121-His [1] = biological target: T1, human VEGFA-121-His (human, UniProt P15692 181-395); test: SPR, VEGF-A121-His captured by anti-His antibody, Fab injected, single cycle kinetics
T1 construct: Prepared in-house; not shown: His tag
T1 sequence: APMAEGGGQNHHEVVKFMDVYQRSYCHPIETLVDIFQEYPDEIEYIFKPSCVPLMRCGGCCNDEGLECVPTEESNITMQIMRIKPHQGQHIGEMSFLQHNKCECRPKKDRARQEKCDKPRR
Description: (§1) An anti-His capturing antibody (GE Healthcare 28995056) was immobilized to a Series S Sensor Chip C1 (GE Healthcare BR100535) using standard amine coupling chemistry resulting in a surface density of approximately 600 resonance units (RU). As running and dilution buffer, HBS-P+ (10 mM HEPES, 150 mM NaCl pH 7.4, 0.05% Surfactant P20) was used. […] A dilution series of the tested antibody (3.7-300 nM, 1:3 dilution) was successively injected for 60 s each, dissociation was monitored for 3600 s at a flow rate of 30 μl/min (single cycle kinetics). The surface was regenerated by injecting 10 mM Glycine pH 1.5 for 60 s at a flow of 5 μl/min. […] Curve fitting was performed using the 1:1 Langmuir binding model within the Biacore® evaluation software.
(§2) Binding kinetics to human VEGF-A and human ANG2 for the candidate antibodies were assessed as described above using the indicated Fab fragments (amino acid sequence as illustrated in Table 4).

human Ang2-RBD [2] = biological target: T2, human Ang2-RBD (human, UniProt O15123 275-496, limits assumed); test: SPR, Fab captured by anti-Fab antibody, Ang2-RBD injected, 25 C, 1:1 fit
T2 construct: also called Human ANG2 (SPR); Angiopoietin 2-RBD
T2 sequence: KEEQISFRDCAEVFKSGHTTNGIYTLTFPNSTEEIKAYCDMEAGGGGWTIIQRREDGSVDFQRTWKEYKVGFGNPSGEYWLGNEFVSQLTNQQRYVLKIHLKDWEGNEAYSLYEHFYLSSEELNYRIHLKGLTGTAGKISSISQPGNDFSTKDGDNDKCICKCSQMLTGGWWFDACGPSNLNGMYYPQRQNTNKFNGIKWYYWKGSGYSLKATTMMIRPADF
Description: (§3) An anti-Fab capturing antibody (GE Healthcare 28958325) was immobilized to a Series S Sensor Chip C1 (GE Healthcare BR100535) using standard amine coupling chemistry resulting in a surface density of approximately 800 resonance units (RU). As running and dilution buffer, HBS-P+ (10 mM HEPES, 150 mM NaCl pH 7.4, 0.05% Surfactant P20) was used, the temperature of measurement was 25° C. The tested antibody was captured by injecting a 50 nM solution for 60 sec at a flow of 5 μl/min. Association was measured by injection of human Ang2-RBD in various concentrations in solution for 180 sec at a flow of 30 μl/min (0.07 nM-50 nM, 1:3 dilution). The dissociation phase was monitored for up to 900 sec and triggered by switching from the sample solution to running buffer at a flow rate of 30 μl/min. The surface was regenerated by injection of 10 mM Glycine pH 2.1 for 60 s at a flow rate of 30 μl/min. Bulk refractive index differences were corrected by subtracting blank injections and by subtracting the response obtained from the reference flow cell without captured tested antibody. Curve fitting was performed using the 1:1 Langmuir binding model within the Biacore® evaluation software.
as §2

human Ang2-RBD [3] = biological target: T2, human Ang2-RBD; test: SPR, Fab captured by anti-Fab antibody; 3) VEGFA-121 first, then Ang2-RBD (binding of Ang2 in the presence of VEGFA-121); final combined signal of both antigens
Description: (§4) The bispecific Fab was captured by injecting a 6.5 μg/ml solution for 60 sec at a flow of 5 μl/min. Independent binding of each ligand to the bispecific Fab was analysed by determining the active binding capacity for each ligand, either added sequentially or simultaneously (flow of 10 μl/min): [0359] […] [0360] 2) Injection of human Ang2 with a concentration of 5 μg/ml for 60 sec (identifies single binding of the antigen) [0361] […] [0362] […] [0363]
(§5) Independent binding of candidate antibodies to human VEGF-A and human ANG2 was analysed by SPR as described above in the “Materials & general methods” section.

human VEGFA-121-His [4] = biological target: T1, human VEGFA-121-His; test: SPR, VEGF-A121-His captured by anti-His antibody, Fab injected, single cycle kinetics; marked outside of Biacore specification
Description: as §1, §2

human VEGFA-121 = biological target: T3, human VEGFA-121 (human, UniProt P15692 181-395); test: SPR, Fab captured by anti-Fab antibody; 1) VEGFA-121 alone, then buffer; final signal in % of the sum of the single signals
T3 construct: sources differ (in-house, R&D, Peprotech); also called hVEGF-A121
T3 sequence: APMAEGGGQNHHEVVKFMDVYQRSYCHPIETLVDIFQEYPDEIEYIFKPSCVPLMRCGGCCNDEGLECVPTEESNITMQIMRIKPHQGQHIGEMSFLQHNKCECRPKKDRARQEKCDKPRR
Description: as §4, §5

human Ang2-RBD [5] = biological target: T2, human Ang2-RBD; test: SPR, Fab captured by anti-Fab antibody, Ang2-RBD injected, 25 C
Description: as §3, §2

human Ang2-RBD [6] = biological target: T2, human Ang2-RBD; test: SPR, Fab captured by anti-Fab antibody; 2) Ang2-RBD alone, then buffer; final signal in % of the sum of the single signals
Description: as §4, §5

human VEGFA-121-His [7] = biological target: T1, human VEGFA-121-His; test: KinExA equilibrium titration in solution, constant VEGFA-121-His
Description: All KinExA® experiments were performed at room temperature (RT) using PBS pH 7.4 with 0.01% BSA and 0.01% Tween® 20 (BioRad, #161-0781) as running buffer. […] A flow rate of 0.25 ml/min was used. […] Antigen-antibody complexes were incubated at RT for at least 8 h to allow equilibrium to be reached. […] Each sample was measured in duplicates for all equilibrium experiments. The KD was obtained from non-linear regression analysis of the data using a one-site homogeneous binding model contained within the KinExA® software (Version 4.0.11) using the “standard analysis” method. The software calculates the KD and determines the 95% confidence interval by fitting the data points to a theoretical KD curve. The 95% confidence interval is given as KD low and KD high.
as §2

B1: bispecific anti-VEGF-A/anti-ANG2 Fab fragment P1AA0902 (Fab, V domains shown)
VH: DDHLVESGGGLVKPGGSLRLSCATADFFEYDDMSWVRQAPGKGLEWVGSISGRGDHKYLNTKFIGRFTISRDDSKNTLYLQMNSLRAEDTAVYYCARDVGFFDWWGQGTLVTVSS
VL: AIYMHQEPSSLSASVGDRVTITCHGSYWLNSELAWYQQKPGKAPKLLIFDGDFKVFDVPSRFSGSGSHEDYTLTISSLQPEDFATYYCQQYRYHPYTFGHGTKVEIKR
notes: Bispecific Fab with two paratopes in one VH/VL pair
With B1 the “t1/2” value (human VEGFA-121-His [1]) was 23.3 h, the Kd (human Ang2-RBD [2]) was 19 pM and the koff (human Ang2-RBD [2]) was 0.000106 s⁻¹. The kon (human Ang2-RBD [2]) was 5.51e+06 M⁻¹ s⁻¹, the “Signal [%]” value (human Ang2-RBD [3]) was 85% and the Kd (human VEGFA-121-His [4]) was 11 pM. The koff (human VEGFA-121-His [4]) was 8.27e-06 s⁻¹, the “Signal [%]” value (human VEGFA-121) was 50% and the “t1/2” value (human Ang2-RBD [5]) was 1.82 h. The “Signal [%]” value (human Ang2-RBD [6]) was 50% and the Kd (human VEGFA-121-His [7]) was 11.4 pM.

B2: bispecific anti-VEGF-A/anti-ANG2 Fab fragment P1AD9820 (Fab, V domains shown)
VH: SEHLVESGGGLVKPGGSLRLSCATADFFEYDDMSWVRQAPGKGLEWVGSISPKGDHKYLNTKFIGRFTISRDDSKNTLYLQMNSLRAEDTAVYYCARDVGFFDWWGQGTLVTVSS
VL: AIYMHQEPSSLSASVGDRVTITCHGSYWLNSEVAWYQQKPGKAPKLLIFDGDFKVYEVPSRFSGSGSHEDYTLTISSLQPEDFATYYCQQYRYHPYTFGHGTKVEIKR
notes: Bispecific Fab with two paratopes in one VH/VL pair; also called P1AD9820 Fab
In the case of B2, the “t1/2” value (human VEGFA-121-His [1]) is reported as 33.1 h, the Kd (human Ang2-RBD [2]) is reported as 8 pM and the koff (human Ang2-RBD [2]) is reported as 5.78e-05 s⁻¹. The kon (human Ang2-RBD [2]) was 7.43e+06 M⁻¹ s⁻¹, the “Signal [%]” value (human Ang2-RBD [3]) was 85% and the Kd (human VEGFA-121-His [4]) was 8 pM. The “Signal [%]” value (human VEGFA-121) was 50%, the “t1/2” value (human Ang2-RBD [5]) was 3.33 h and the “Signal [%]” value (human Ang2-RBD [6]) was 50%. It also gave a Kd (human VEGFA-121-His [7]) of 3.85 pM.

B3: bispecific anti-VEGF-A/anti-ANG2 Fab fragment P1AA8906 (Fab, V domains shown)
VH: DFQLVESGGGLVKPGGSLRLSCAASYEFEYDDMSWVRQAPGKGLEWVGSISPKGGSTYYNTKFIGRFTISRDNSKNTLYLQMNSLRAEDTAVYYCARDVGFFDMWGQGTLVTVSS
VL: AIYMHQEPSSLSASVGDRVTITCHGSYWLSNYLAWYQQKPGKAPKLLIFDARWLVHGVPSRFSGSGSHEDYTLTISSLQPEDFATYYCQQYRYHPYTFGHGTKVEIKR
notes: Bispecific Fab with two paratopes in one VH/VL pair (DutaFab); CH1 and Ckappa
For B3, the “t1/2” value (human VEGFA-121-His [1]) was 42.5 h, the Kd (human Ang2-RBD [2]) was 4550 pM and the koff (human Ang2-RBD [2]) was 0.032 s⁻¹. For the same binder, the kon (human Ang2-RBD [2]) was 7.03e+06 M⁻¹ s⁻¹, the “Signal [%]” value (human Ang2-RBD [3]) was 82% and the Kd (human VEGFA-121-His [4]) was 3 pM. The koff (human VEGFA-121-His [4]) was 4.53e-06 s⁻¹, the “Signal [%]” value (human VEGFA-121) was 50% and the “t1/2” value (human Ang2-RBD [5]) was 0.00667 h. The “Signal [%]” value (human Ang2-RBD [6]) was 50% and the Kd (human VEGFA-121-His [7]) was 10.9 pM.

— patent publication US20220073599A1 (Hoffmann-La Roche, published 2022)
